Measured values reported in patent US20120208753A1 (published 2012).

Target: the molecule itself
Test: non-reducing PAGE of protein isolated from CHO cells

B1: active domain of GDF-6 fused to a FLAG tag (SEQ ID NO: 25) (ligand)
chain: MDYKDDDDKENLYFQGTAFASRHGKRHGKKSRLRCSKKPLHVNFKELGWDDWIIAPLEYEAYHCEGVCDFPLRSHLEPTNHAIIQTLMNSMDPGSTPPSCCVPTKLTPISILYIDAGNNVVYKQYEDMVVESCGCR
notes: It was secreted by CHO cells; the Western blot was run under reducing conditions; also called active fragment of GDF-6; active fragment
B1: binds.
